In patent US20260258115A1 (MAPP BIOPHARMACEUTICAL, published 2026):

What was measured:
RSV F on RSV-A2 virus = RSV F on RSV-A2 virus (Respiratory Syncytial Virus (RSV-A2), UniProt P03420 26-574); test: cell-based or functional assay
[1] = target: RSV prefusion F (preF), DS-Cav1 (Respiratory Syncytial Virus, UniProt P03420 26-513); test: BLI, IgG on anti-human IgG sensor
[2] = target: RSV postfusion F (postF), F ΔFP (Respiratory Syncytial Virus, UniProt P03420 26-513); test: BLI, IgG on anti-human IgG sensor, 100 nM antigen, 1:1 fit
[3] = target: RSV F on RSV subtype A virus (RSV-A2) (Respiratory Syncytial Virus, subtype A, …, UniProt P03420 26-574); test: cell-based or functional assay
[4] = target: RSV postfusion F (postF), F ΔFP trimer, subtype A (Respiratory Syncytial Virus, subtype A, UniProt P03420 26-513); test: BLI, IgG on anti-human IgG sensors
[5] = target: RSV prefusion F (preF), DS-Cav1 stabilized trimer, subtype A (Respiratory Syncytial Virus, subtype A, UniProt P03420 26-513); test: BLI, IgG on anti-human IgG sensors, 100 nM antigen, apparent KD

Binder	Neutralization IC50 (RSV subtype A) (RSV F on RSV-A2 virus) [µg/mL]	binding result [1]	Kd [2] [nM]	Neutralization IC50 (RSV subtype A) [3] [µg/mL]	binding result [4]	Kd [5] [nM]
ADI-41462 (antibody, V domains shown) VH: QVQLQQWGAGLVKPSETLSLSCDVYGGSFSGYYWTWIRQPPGKGLEWIGEINHSGRTNYNPSLKNRVTISVDTSKKQFSLKLSSVTAADTAVYFCARAPYYDIVTDYNITTAYFYGMDVWGQGTTVTVSS VL: not shown	> 25	no binding	1.54			
ADI-41507 (antibody, V domains shown) VH: QVTLKESGPTLVKPTQTLRLTCTFSGFSLNVISGVGVGWIRQPPGKALEWLALIYWDDDKRYSPSLKSRLTIAKDTSKNQVVLTMTNMDPVDTATYYCAHKGGSIEAAVGFDYWGQGTLVTVSS VL: QSVLTQPPSVSGAPGQRVIISCTGSSSNIGAGFAVHWYQQLPGTAPKLLIYANTNRPSGVPDRFSGSKSGTSASLAITGLQAEDEADYYCQSYDTSLSGFYVFGTGTKLTVL	> 25	no binding	140			
ADI-41525 (antibody, V domains shown, also called Ab 797; Antibody Number 797) VH: QVQLVQSGAEMKKPGSSVKVSCKASGRTFKYFALNWMRRAPGHGLEWIGGDIPISGSTNYAQKFQGRVTITADESASTAYMEVSRLRSDDTAVYYCASLHYDVSTGFSDAFDIWGQGTMVTVSS VL: QSVLTQPASVSGSPGQSITISCTGTSSDVGAYNYVSWYQHHPGKAPKLMIFDVSNRPSGVSNRFSGSKSGNTASLTISGLQAEDEADYYCSSYRSTFSYVFGTGTKVTVL	> 25	no binding	0.327			
ADI-41544 (antibody, V domains shown, also called Ab 816; Antibody Number 816) VH: QVQLVQSGAEVKKPGESLKISCKGSGYSFTNYWIGWVRQMPGKGLEWMGIIFPADSDTRYSPSFQGQVTISADKSVSTAYLQWTSLKASDTAIYYCARLGVAAAGGYWGQGTLVTVSS VL: not shown	> 25	no binding	0.805			
ADI-41458 (antibody, V domains shown) VH: EVQLLESGSGLVKPSQTLSLTCAVSGDSLNSALYSWSWIRQPPGKGLEWIGYIYYSGSTYYNSSLKSRVTISIDRSKNQFSLNLNSVTAADTAVYYCASLQTGYSSGWFFDFWGPGTLVTVSS VL: EIVLTQSPGTLSLSPGERATLSCRASQSVSRTYLTWYQQKPGQAPRLLIYGASNRATGIPDRFSGSGSGTDFTLTISRLEPEDFAVYYCQQYGSTPLFGQGTKVEIK	> 25	no binding	0.549			
ADI-41477 (antibody, V domains shown, also called Ab 760; Antibody Number 760) VH: QVQLVQSGAEVKKPGASVRVSCKASGYPFISYYIHWVRQAPGQGLEWMGMINTNGGSTHYAQKFQGRVTMTRDTSTTTIYMELSRLKSEDTAYYFCARDNTETVLHGFWSGYGSYLDYWGQGTLVTVSS VL: EIVLTQSPGTLSLSPGGRATLSCRASQSVTSSYLAWYQQRPGQAPRLLIYGASSRAAGIPDRFSGSGSGTDFTLTISRLEPEDFAVYYCQQYGSAPLTFGGGTKLEIK	> 25	no binding	0.505			
ADI-41488 (antibody, V domains shown, also called Ab 769; Antibody Number 769) VH: EVQLVESGPGLVKPSETLSLTCTVSGGSINSDYWNWIRQTPGKGLEWIGYIFYSGNTNYNPSLKSRVTISIDTSKKKFSLQVTSVTAADTAVYYCARMGTLKFDFDNWGQGTLVTVSS VL: QSALTQPRSVSGSPGQSVTIPCTGTSSDVGAYKYVSWYQQHPGKAPKLIIYDVTKRPSGVPNRFSGSKSGNTASLTISGLQAEDEADYYCCSYAGTHTYWVFGGGTKVTVL	> 25	no binding	0.605			
ADI-41479 (antibody, V domains shown) VH: QVQLVQSGAEVKKPGESLKISCKGSGYSFISYWIGWVRQMPGKGLEWMGIIYPADSDTRYSPSFQGQVTISVDKSISTAYLQWSSLKASDTGMYYCVRYGVGGTAPRYWGQGTTVTVSS VL: NFMLTQPHSVSESPGKTVTISCTGSSGSIASNYVHWYQQRPGSAPTTVIYEDNQRPSGVPDRFSGSIDSSSNSASLTISGLKTEDEADYYCQSYDISNLWVFGGGTKLTVL	0.46	no binding	33.1			
ADI-41837 (antibody, V domains shown, also called Ab 937; Antibody Number 937) VH: QVQLVQSGAEVKKPGASVKVSCKASGYTFTSYGISWVRQAPGQGLEWMGWISAYSGDTDYAQKLQGRVTMTTDTATSTAYMELRSLRSDDTAVYYCARDAHCSSTNCYIDLGGAPVDYWGQGTLVTVSS VL: DIVLTQTPLSLSVTLGQPASISCRSSQSLVYIDGYTYLNWFQQRPGQSPRRLIYKVSNRDSGVPDRFSGSGSGTDFTLKISRVEAEDVGVYYCMQGAHWPWTFGQGTKVEIK				> 25	no binding (tested: 100 nM antigen)	7.09
ADI-41839 (antibody, V domains shown, also called Ab 939; Antibody Number 939) VH: EVQLLESGGGVVQPGGSLRLSCVASGFTFSAYGMHWVRQAPGKGPEWVAMTRSDGNKIYYADSVKGRFTISRDDSKNTLYLEMNSLRPDDTAVYFCAKEVGYGGNSLHYWGQGTLVTVSS VL: SYELIQPPSVSVAPGQTAKITCGGNNIGSKSVHWYQQKPGQAPVLVVFDDSDRPSGIPERFSGSNSGNTATLTISRVEAGDEADYYCQVWDFSSDLWVFGGGTKLTVL				> 25	no binding (tested: 100 nM antigen)	7.88
ADI-41838 (antibody, V domains shown, also called Ab 938; Antibody Number 938) VH: EVQLLESGGGVVQPGRSLRLSCAASEFTFRSYAMHWVRQAPGMGLEWVAVTPYDGISKYYADSVKGRFTISRDNSKNTLYLQMNSLRPEDTAVYYCARGFPEPITSWPGYFYAMDVWGQGTTVTVSS VL: QSALTQPASVSGSPGQSITISCTGTTSDVGVYNYVSWYQQHPGKAPKLMIYDVSNRPSGVSNRFSGSKSGNTASLTISGLQAEDEADYYCSSYTNSDTPVVFGGGTKLTVL				> 25	no binding (tested: 100 nM antigen)	32.1
ADI-41836 (antibody, V domains shown) VH: EVQLLESGAEVKKPGASVKVSCRASGYTFTSNTLHWVRQAPGQGLEWMGWINADNGNTRYSQKFQGRVTITRDTSANTAYMELSSLISEDTAVYYCAREWSGFWSGLNWFEPWGQGTLVTVSS VL: QSVLTQPPSVSGAPGQRVTISCTGSSSNIGSGNDVHWYQQFPGTAPKVLIYVNSIRPSGVSDRFSGSKSGTSASLAITGLRAEDEADYYCQSYDSSLNGVAFGGGTKLTVL				> 25	no binding (tested: 100 nM antigen)	5.74
ADI-41546 (antibody, V domains shown) VH: QVQLVQSGAEVKKPGESLKISCKGSGYSFTNYWIGWVRQMPGKGLEWMGIIFSADSDTRYSPSFQGQVTISADKSISTAYLQWSSLKASDTAMYYCARQWGITGDAFDIWGQGTMVTVSS VL: DIQVTQSPSFLSASVGDRVTITCRASQGISGYLAWYQQKPGKAPKLLIYAASTLQSGVPSRFSGSGSGTEFTLTISSLQPEDFATYYCQQLNSYPYTFGQGTKVEIK	> 25	no binding	1.08			
ADI-41465 (antibody, V domains shown) VH: QVQLVQSGGGVVQPGRSLRLSCAASGFTFTSYDMHWVRQAPGKGLEWVAIISHDGSKQFYADSVKGRFTISRDNSKNTLYLQMNSLRPEDTAMYYCAKDTPSWGLLAEFFRHWGQGTLVTVSS VL: not shown	> 25	no binding	1.73			
ADI-41833 (antibody, V domains shown) VH: EVQLLESGGGLVQPGGSLRLSCAASRFTFSTYAMSWVRQAPGKGLEWVSSISGSGDKTFYTDSVKGRFTISRDNSKNTLYLQMNSLRAEDTAVYYCARESYYELWTGTYPGWELDYWGQGTLVTVSS VL: DIQLTQSPSSLSASVGDRVTITCRASQDISNYLAWYQQKPGKPPKLLIYAASILESGAPSRFSGSGSGTDFTLTISSLQPEDVGTYYCQKSNSAPRPFGQGTKVEIK				0.02	no binding (tested: 100 nM antigen)	0.723
ADI-43641 (antibody, V domains shown, also called Ab 946; Antibody Number 946) VH: EVQLVESGGGLVKPGGSLRLSCAASGFTFSDYYMSWIRQAPGKGLEWVSYISSSSSYTNYADSVKGRFTISRDNAKNSLYLQMNSLRAEDTAVYYCARDFSGQWLVLGYGMDVWGQGTTVTVSS VL: QSVVTQPPSVSGAPGQRVTISCTGSSSNIGAGYDVHWYQQLPGTAPKLLIYGNSNRPSGVPDRFSGSKSGTSASLAITGLQAEDEADYYCQSYDSSLSGPVFGGGTKLTVL				> 25	no binding (tested: 100 nM antigen)	37.5
ADI-43642 (antibody, V domains shown, also called Ab 947; Antibody Number 947) VH: EVQLLESGGGLVKPGGSLRLSCAASGFTFSSYSMNWVRQAPGKGLEWVSSISSSSSYIYYADSVKGRFTISRDNAKNSLYLQMNSLRAEDTAVYYCARDGADSSYYYYMDVWGKGTTVTVSS VL: QAVVTQPPSVSGAPGQRVTISCTGSSSNIGAGYDVHWYQQLPGTAPKLLIYGNSNRPSGVPDRFSGSKSGTSASLAITGLQAEDEADYYCQSYDSSLSGSVFGGGTKLTVL				> 25	no binding (tested: 100 nM antigen)	43.2
